Assay results: patent US20240026036A1

Target: Recombinant human TNFα (R&D Systems) (human) (UniProt P01375)
Sequence (P01375 77-233 limits assumed): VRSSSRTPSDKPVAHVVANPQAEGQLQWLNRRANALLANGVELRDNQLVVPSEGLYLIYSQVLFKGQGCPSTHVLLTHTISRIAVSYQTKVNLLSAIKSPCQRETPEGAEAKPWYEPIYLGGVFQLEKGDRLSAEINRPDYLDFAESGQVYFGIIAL

For etanercept (Fc fusion), the IC50, inhibition of TNFα-induced Caspase 3 activity in U937 cells was 0.144 nM.
